First the molecules themselves.
B1: PEX5 peptide 238-253 (Peroxisomal targeting signal 1 receptor), 16-mer library wild type / PEX14 Pex14 (PEX14 PEX14, residues 16-84) (parent)
chain 1: AQAEQWAAEFIQQQGT
chain 2: TPGSENVLPREPLIATAVKFLQNSRVRQSPLATRRAFLKKKGLTDEEIDMAFQQSGTAADEPSSLGPAT
B2: PAIP1 peptide 126-141 (Polyadenylate-binding protein-interacting protein 1), 16-mer library wild type / PABPC1 PABC (PABPC1 PABC domain, residues 544-623) (parent)
chain 1: SKLSVNAPEFYPSGYS
chain 2: PLTASMLASAPPQEQKQMLGERLFPLIQAMHPTLAGKITGMLLEIDNSELLHMLESPESLRSKVDEAVAVLQAHQAKEAA

The variants in one assay derive from B1. The assay is described as follows: proteomic peptide phage display deep mutational scan (ProP-PD DMS): M13 P8 16-mer library selected against immobilised GST-tagged bait for four days (rounds), NGS of the eluted pools per day and pseudo-replica. The settings on record: with PEX14 Pex14 (PEX14 PEX14, residues 16-84); bait immobilised on MaxiSorp plates (10 µg), library pre-cleared on GST, 2 h binding at 4 °C, five washes; one round per day, days 1-4; value from days 2 and 3; keep out of graded; scale: average fractional NGS count over selection days 2 and 3.
With chain 1 AQIEQWAAEFIQQQGT [chain 1 A3I], the screen value was 0.
Same read-out and setting: the result for chain 1 AQEEQWAAEFIQQQGT [chain 1 A3E] reads 0.000385; that for chain 1 AQPEQWAAEFIQQQGT [chain 1 A3P], 0.000153.
On the same count and under the same terms, next, chain 1 AQSEQWAAEFIQQQGT [chain 1 A3S]: 0.000376; chain 1 AQMEQWAAEFIQQQGT [chain 1 A3M]: 0.000674; chain 1 AQWEQWAAEFIQQQGT [chain 1 A3W]: 0.
On the same count and under the same terms, next, chain 1 AQLEQWAAEFIQQQGT [chain 1 A3L]: 0; chain 1 AQNEQWAAEFIQQQGT [chain 1 A3N]: 0.00244.
On to chain 1 AQTEQWAAEFIQQQGT [chain 1 A3T], for which the screen value was determined as 0.000152.
chain 1 AQGEQWAAEFIQQQGT [chain 1 A3G]: the screen value was determined as 0.000791.
Consider chain 1 AQDEQWAAEFIQQQGT [chain 1 A3D], for which the screen value turned out to be 0.000241.
Take chain 1 AQVEQWAAEFIQQQGT [chain 1 A3V]: the screen value stood at 0.000366.

A further assay covers variants of B2. Described as above. The following applies: with PABPC1 PABC (PABPC1 PABC domain, residues 544-623); bait immobilised on MaxiSorp plates (10 µg), library pre-cleared on GST, 2 h binding at 4 °C, five washes; one round per day, days 1-4; value from days 2 and 3; keep out of graded; scale: average fractional NGS count over selection days 2 and 3.
For the variant chain 1 SDLSVNAPEFYPSGYS [chain 1 K2D], the screen value was 0.000197.
Consider chain 1 SPLSVNAPEFYPSGYS [chain 1 K2P], for which the screen value worked out at 0.00022.
Consider chain 1 SWLSVNAPEFYPSGYS [chain 1 K2W], for which the screen value came out at 0.000491.
chain 1 SNLSVNAPEFYPSGYS [chain 1 K2N]: the screen value is 0.000212.
For the variant chain 1 SILSVNAPEFYPSGYS [chain 1 K2I], the screen value worked out at 0.
chain 1 SYLSVNAPEFYPSGYS [chain 1 K2Y]: the screen value was 0.000158.
On the same count and under the same terms, next, chain 1 SVLSVNAPEFYPSGYS [chain 1 K2V]: 0.000896; chain 1 SALSVNAPEFYPSGYS [chain 1 K2A]: 0.000319.
Regarding chain 1 SHLSVNAPEFYPSGYS [chain 1 K2H], the screen value turned out to be 4.17e-05.
Same read-out and setting: next, chain 1 SGLSVNAPEFYPSGYS [chain 1 K2G]: 0.000321; chain 1 SFLSVNAPEFYPSGYS [chain 1 K2F]: 0.000245.
With chain 1 SKLSVNAPEFYESGYS [chain 1 P12E], the screen value was determined as 0.000484.
Regarding chain 1 SKLSVNAPEFYMSGYS [chain 1 P12M], the screen value amounted to 0.000643.
The same measure, in the same setting: next, chain 1 SKLSVNAPEFYQSGYS [chain 1 P12Q]: 0.000152; chain 1 SKLSVNAPEFYLSGYS [chain 1 P12L]: 0.00211.
Consider chain 1 SKLSVNAPEFYHSGYS [chain 1 P12H], for which the screen value stood at 0.00057.
For the variant chain 1 SKLSVNAPEFYFSGYS [chain 1 P12F], the screen value worked out at 0.00121.
Same read-out and setting: next, chain 1 SKLSVNAPEFYYSGYS [chain 1 P12Y]: 0.00157.
Still for that read-out and setting: the result for chain 1 SKLSVNAPEFYISGYS [chain 1 P12I] reads 0.000623.
With chain 1 SKLSVNAPEFYVSGYS [chain 1 P12V], the screen value worked out at 5.13e-05.
Still for that read-out and setting: next, chain 1 SKLSVNAPEFYSSGYS [chain 1 P12S]: 0.00133; chain 1 SKLSVNAPEFYTSGYS [chain 1 P12T]: 0.000222.
Still for that read-out and setting: the result for chain 1 SKLSVNAPEFYNSGYS [chain 1 P12N] reads 8.81e-05.
On the same count and under the same terms, next, chain 1 SKLSVNAPEFYRSGYS [chain 1 P12R]: 4.76e-05; chain 1 SKLSVNAPEFYASGYS [chain 1 P12A]: 0.00198.
Take chain 1 YKLSVNAPEFYPSGYS [chain 1 S1Y]: the screen value stood at 0.000342.
Still for that read-out and setting: the result for chain 1 RKLSVNAPEFYPSGYS [chain 1 S1R] reads 7.1e-05; that for chain 1 AKLSVNAPEFYPSGYS [chain 1 S1A], 0.0012.
Take chain 1 NKLSVNAPEFYPSGYS [chain 1 S1N]: the screen value was found to be 0.000154.
Same read-out and setting: next, chain 1 FKLSVNAPEFYPSGYS [chain 1 S1F]: 0.
Consider chain 1 PKLSVNAPEFYPSGYS [chain 1 S1P], for which the screen value amounted to 0.000196.
The same measure, in the same setting: the result for chain 1 LKLSVNAPEFYPSGYS [chain 1 S1L] reads 0.00185.
On the same count and under the same terms, next, chain 1 WKLSVNAPEFYPSGYS [chain 1 S1W]: 0.000299; chain 1 MKLSVNAPEFYPSGYS [chain 1 S1M]: 0.0011; chain 1 HKLSVNAPEFYPSGYS [chain 1 S1H]: 0.000214.
The same measure, in the same setting: next, chain 1 VKLSVNAPEFYPSGYS [chain 1 S1V]: 0.000196.
With chain 1 QKLSVNAPEFYPSGYS [chain 1 S1Q], the screen value was 0.000406.
As to chain 1 KKLSVNAPEFYPSGYS [chain 1 S1K], the screen value stood at 0.00037.
Take chain 1 IKLSVNAPEFYPSGYS [chain 1 S1I]: the screen value turned out to be 0.00076.
Consider chain 1 SKLSVNAPEFYPIGYS [chain 1 S13I], for which the screen value was 0.000936.
Consider chain 1 SKLSVNAPEFYPVGYS [chain 1 S13V], for which the screen value was found to be 0.000104.
chain 1 SKLSVNAPEFYPYGYS [chain 1 S13Y]: the screen value worked out at 0.00035.
On the same count and under the same terms, next, chain 1 SKLSVNAPEFYPHGYS [chain 1 S13H]: 0.000367.
The same measure, in the same setting: the result for chain 1 SKLSVNAPEFYPFGYS [chain 1 S13F] reads 0.000556; that for chain 1 SKLSVNAPEFYPMGYS [chain 1 S13M], 0.000419.
As for chain 1 SKLSVNAPEFYPDGYS [chain 1 S13D], the screen value was 0.
With chain 1 SKLSVNAPEFYPNGYS [chain 1 S13N], the screen value is 0.00287.
Same read-out and setting: next, chain 1 SKLSVNAPEFYPPGYS [chain 1 S13P]: 0.
The same measure, in the same setting: the result for chain 1 SKLSVNAPEFYPLGYS [chain 1 S13L] reads 0.000235.
As for chain 1 SKLSVNAPEFYPQGYS [chain 1 S13Q], the screen value is 0.
The same measure, in the same setting: next, chain 1 SKLSVNAPEFYPEGYS [chain 1 S13E]: 0.000161; chain 1 SKLSVNAPEFYPGGYS [chain 1 S13G]: 4.28e-05; chain 1 SKPSVNAPEFYPSGYS [chain 1 L3P]: 9.03e-05.
In the case of chain 1 SKISVNAPEFYPSGYS [chain 1 L3I], the screen value stood at 0.00043.
The same measure, in the same setting: the result for chain 1 SKVSVNAPEFYPSGYS [chain 1 L3V] reads 0.000373; that for chain 1 SKFSVNAPEFYPSGYS [chain 1 L3F], 0.000815; that for chain 1 SKWSVNAPEFYPSGYS [chain 1 L3W], 0.000852.
Same read-out and setting: next, chain 1 SKLSVNAPEWYPSGYS [chain 1 F10W]: 0.0171; chain 1 SKLSVNAPEQYPSGYS [chain 1 F10Q]: 0.
In the case of chain 1 SKLSVNAPEYYPSGYS [chain 1 F10Y], the screen value is 0.00206.
For chain 1 SKLSVNAPEVYPSGYS [chain 1 F10V], the screen value came out at 0.
On to chain 1 SKLSVNAPEDYPSGYS [chain 1 F10D], for which the screen value came to 0.
As for chain 1 SKLSVNAPIFYPSGYS [chain 1 E9I], the screen value worked out at 8.24e-05.
Same read-out and setting: next, chain 1 SKLSVNAPYFYPSGYS [chain 1 E9Y]: 0.000173; chain 1 SKLSVNAPQFYPSGYS [chain 1 E9Q]: 0.000332.
Same read-out and setting: the result for chain 1 SKLSVNAPNFYPSGYS [chain 1 E9N] reads 0.00191.
With chain 1 SKLSVNAPMFYPSGYS [chain 1 E9M], the screen value was found to be 0.00247.
In the case of chain 1 SKLSVNAPKFYPSGYS [chain 1 E9K], the screen value was determined as 0.000266.
Turning to chain 1 SKLSVNAPRFYPSGYS [chain 1 E9R], the screen value was 4.17e-05.
Turning to chain 1 SKLSVNAPTFYPSGYS [chain 1 E9T], the screen value came out at 0.00117.
In the case of chain 1 SKLSVNAPLFYPSGYS [chain 1 E9L], the screen value came out at 0.000721.
Regarding chain 1 SKLSVNAPSFYPSGYS [chain 1 E9S], the screen value came out at 0.00129.
Same read-out and setting: next, chain 1 SKLSVNAPPFYPSGYS [chain 1 E9P]: 0.000543; chain 1 SKLSVNAPHFYPSGYS [chain 1 E9H]: 0.00439.
Turning to chain 1 SKLSVNAPVFYPSGYS [chain 1 E9V], the screen value came out at 0.000182.
As for chain 1 SKLSVNAPEFNPSGYS [chain 1 Y11N], the screen value was 0.000309.
chain 1 SKLSVNAPEFKPSGYS [chain 1 Y11K]: the screen value came to 0.000481.
On the same count and under the same terms, next, chain 1 SKLSVNAPEFEPSGYS [chain 1 Y11E]: 0.00111; chain 1 SKLSVNAPEFIPSGYS [chain 1 Y11I]: 0.000574.
Still for that read-out and setting: next, chain 1 SKLSVNAPEFMPSGYS [chain 1 Y11M]: 0.00123; chain 1 SKLSVNAPEFGPSGYS [chain 1 Y11G]: 0.000528.
Still for that read-out and setting: the result for chain 1 SKLSVNAPEFQPSGYS [chain 1 Y11Q] reads 0.00111.
